The labels stand for the following.
B1: CPEB3 Ribozyme (parent)
chain: UAACAGGGGGCCACAGCAGAAGCGUUCACGUCGCAGCCCCUGUCAGAUUCUGGUGAAUCUGCGAAUUCUGCUGUAUAUCUC

The variants in this data set derive from B1. Kind of data set: self-cleavage, relative activity (ratio to wild type); higher = more cleavage; in vitro, sequencing. The essentials: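 Libraries of CPEB3 self-cleaving ribozyme mutants came from rounds of error-prone PCR and carried barcodes, which DNA sequencing matched to variants. In vitro transcription used T7 RNA polymerase at 37°C for 5 hours, with a further 15 min in DNase I before EDTA stopped the reaction; the ribozymes cleaved during both steps. The RNA was reverse transcribed with template switching and sequenced on Illumina. Relative activity is the cleaved/total read fraction of a variant divided by that of the unmutated ribozyme, averaged over three batches with at least 5 reads.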
As for G24A U58C, the self-cleavage is 0.12.

For the variant G24C A35G, the self-cleavage came to 0.1.

Turning to C23G A45G, the self-cleavage came to 0.21.

In the case of C23A C38U, the self-cleavage turned out to be 0.49.

For the variant C23G U78A, the self-cleavage came to 0.32.

C23G U78C: the self-cleavage stood at 0.28.

As for G24A G36A, the self-cleavage is 0.15.

Turning to G24A G36U, the self-cleavage stood at 0.1.

C23G U31C: the self-cleavage was 0.41.

Take C23A U26A: the self-cleavage amounted to 0.49.

In the case of G24C G42A, the self-cleavage came out at 0.32.

G24C U51C: the self-cleavage was determined as 0.32.

As to G24C U51A, the self-cleavage worked out at 0.3.

Regarding C23U C34U, the self-cleavage came to 0.36.

C23U A65G: the self-cleavage is 0.43.

Take G24C A75U: the self-cleavage was determined as 0.33.

For the variant C23U G24A, the self-cleavage turned out to be 0.22.

Turning to G24A U60C, the self-cleavage worked out at 0.24.

As to G24A U60A, the self-cleavage is 0.28.

In the case of G24A U60G, the self-cleavage amounted to 0.13.

In the case of C23G U69A, the self-cleavage is 0.12.

For the variant C23G U69C, the self-cleavage worked out at 0.08.

Regarding C23G C39U, the self-cleavage was found to be 0.08.

Regarding G24A A77G, the self-cleavage is 0.23.

For G24A A77U, the self-cleavage stood at 0.46.

In the case of C23A A28G, the self-cleavage was 0.18.

On to C23A A28U, for which the self-cleavage was found to be 0.14.

For C23U U76A, the self-cleavage was 0.22.

Consider C23U U76C, for which the self-cleavage turned out to be 0.4.

Turning to C23U A28U, the self-cleavage turned out to be 0.23.

On to C23U A28G, for which the self-cleavage came out at 0.26.

In the case of C23U A28C, the self-cleavage came to 0.43.

On to C23A U31C, for which the self-cleavage amounted to 0.23.

Take C23G U49C: the self-cleavage worked out at 0.16.

Turning to G24A U41A, the self-cleavage turned out to be 0.21.

For the variant G24A U41C, the self-cleavage turned out to be 0.3.

As to G24A U41G, the self-cleavage was found to be 0.12.

For the variant C23U U26C, the self-cleavage was 0.2.

On to C23U U26A, for which the self-cleavage stood at 0.24.

C23G U58C: the self-cleavage turned out to be 0.21.

Consider C23U C27U, for which the self-cleavage stood at 0.31.

Take G24U A45C: the self-cleavage came out at 0.22.

Consider G24U A45U, for which the self-cleavage was found to be 0.18.

C23G A65U: the self-cleavage was determined as 0.22.

In the case of C23G A35U, the self-cleavage turned out to be 0.19.

G24C U49C: the self-cleavage was 0.46.

As to C23U U58A, the self-cleavage is 0.34.

In the case of G24A U66C, the self-cleavage stood at 0.39.

Regarding G24A U66A, the self-cleavage worked out at 0.3.

Take G24A U51G: the self-cleavage is 0.11.

As for G24A U51C, the self-cleavage was found to be 0.31.

On to G24A U51A, for which the self-cleavage stood at 0.15.

As for G24A U69A, the self-cleavage stood at 0.25.

With G24A U69C, the self-cleavage was determined as 0.32.

G24A U69G: the self-cleavage was 0.13.

Consider C23A A47U, for which the self-cleavage worked out at 0.47.

As to C23A A47G, the self-cleavage was found to be 0.41.

In the case of G24A C81A, the self-cleavage is 0.16.

As for C23A G52U, the self-cleavage was 0.15.

As to G24A G55A, the self-cleavage was determined as 0.1.

As for C23A A45G, the self-cleavage was determined as 0.23.

Take C23A A45C: the self-cleavage came to 0.34.

For C23U G61A, the self-cleavage stood at 0.25.

Turning to C23U G61C, the self-cleavage was determined as 0.11.

For G24C U31A, the self-cleavage was 0.19.

Turning to G24C U31G, the self-cleavage came to 0.34.

Turning to G24C U31C, the self-cleavage worked out at 0.1.

As for G24A A75G, the self-cleavage came out at 0.32.

Consider G24A A75U, for which the self-cleavage was 0.25.

For C23U C38A, the self-cleavage was found to be 0.16.

As to C23U C38U, the self-cleavage was determined as 0.13.

For the variant C23A A64G, the self-cleavage is 0.53.

Take G24C U60A: the self-cleavage came to 0.45.

For C23A G36U, the self-cleavage was found to be 0.25.

For C23U U41C, the self-cleavage is 0.27.

As to C23U U41A, the self-cleavage was 0.12.

Turning to G24A C62U, the self-cleavage came out at 0.18.

On to G24C U67A, for which the self-cleavage was 0.21.

With G24C U67C, the self-cleavage is 0.11.

Consider C23U G46A, for which the self-cleavage came to 0.06.

On to G24C U72A, for which the self-cleavage was 0.19.

As to G24C U72G, the self-cleavage worked out at 0.2.

G24C U72C: the self-cleavage was determined as 0.15.

For G24A C71U, the self-cleavage is 0.36.

Turning to G24A C71G, the self-cleavage turned out to be 0.09.

Turning to C23A U41C, the self-cleavage was 0.34.

C23A U41A: the self-cleavage is 0.35.

With C23A U58C, the self-cleavage amounted to 0.56.

As to C23A U58A, the self-cleavage came to 0.18.

For G24U A28G, the self-cleavage is 0.17.

For G24A G52U, the self-cleavage was found to be 0.37.

As for G24A G52A, the self-cleavage turned out to be 0.21.

For C23A C34U, the self-cleavage is 0.22.

For G24A G30A, the self-cleavage is 0.24.

G22U U76A: the self-cleavage came out at 0.33.

Regarding C23A A57G, the self-cleavage was determined as 0.26.

Regarding C23U, the self-cleavage turned out to be 0.35.

Regarding C23G, the self-cleavage was determined as 0.26.

With C23A, the self-cleavage was found to be 0.3.

On to C23A A65G, for which the self-cleavage worked out at 0.28.

Turning to C23U G30A, the self-cleavage worked out at 0.12.

Take G24C U48C: the self-cleavage is 0.22.

For the variant G24A A64G, the self-cleavage came to 0.36.

Regarding G24A A64U, the self-cleavage is 0.28.

As for G24C G73A, the self-cleavage was found to be 0.16.

For the variant C23A C39U, the self-cleavage was 0.23.

For G22U U80C, the self-cleavage came to 0.24.

Turning to C23G U41C, the self-cleavage is 0.21.

For C23G U41A, the self-cleavage was found to be 0.1.

Turning to C23U U74A, the self-cleavage came to 0.58.

For C23U U74C, the self-cleavage is 0.76.

Regarding G24A A56U, the self-cleavage was 0.37.

With G24A A56G, the self-cleavage was found to be 0.13.

In the case of G24A U72C, the self-cleavage turned out to be 0.25.

Regarding G24A U72A, the self-cleavage came out at 0.29.

G24C U58C: the self-cleavage turned out to be 0.2.

In the case of G24C A77U, the self-cleavage amounted to 0.09.

For the variant G24C A77G, the self-cleavage stood at 0.3.

In the case of G24A U67A, the self-cleavage was 0.18.

As to G24A U67C, the self-cleavage was 0.22.

For G24A A65G, the self-cleavage was determined as 0.28.

Turning to C23A U51A, the self-cleavage is 0.37.

With C23A U51C, the self-cleavage came to 0.27.

Regarding C23U U31A, the self-cleavage came to 0.23.

Turning to C23U U31C, the self-cleavage worked out at 0.22.

C23A U74A: the self-cleavage stood at 0.23.

Take G24A G61C: the self-cleavage came out at 0.09.

Take G24A G61A: the self-cleavage was 0.19.

As to G24A C29G, the self-cleavage turned out to be 0.21.

With C23A U49A, the self-cleavage came out at 0.25.

Take C23U G52A: the self-cleavage turned out to be 0.57.

For the variant G24A U80A, the self-cleavage is 0.24.

Take G24A U80C: the self-cleavage was found to be 0.59.

As to G24C U69A, the self-cleavage worked out at 0.

In the case of G24C U69C, the self-cleavage stood at 0.17.

In the case of G24C A64G, the self-cleavage worked out at 0.45.

With C23A U72C, the self-cleavage amounted to 0.41.

As for C23A U72A, the self-cleavage worked out at 0.08.

G24A C27U: the self-cleavage amounted to 0.3.

In the case of G24A C27A, the self-cleavage was 0.18.

In the case of C23A C79A, the self-cleavage turned out to be 0.26.

Regarding C23A C81G, the self-cleavage came to 0.22.

For the variant G24A G63A, the self-cleavage amounted to 0.37.

Take G24A G63C: the self-cleavage is 0.16.

On to G24A A47U, for which the self-cleavage turned out to be 0.21.

For G24A A47G, the self-cleavage worked out at 0.27.

As for G24A G53A, the self-cleavage was found to be 0.53.

For the variant C23A G24A, the self-cleavage was determined as 0.13.

G24A U48C: the self-cleavage stood at 0.22.

Turning to C23A U80C, the self-cleavage was 0.12.

Take C23A U80G: the self-cleavage amounted to 0.51.

Turning to C23A U80A, the self-cleavage came out at 0.23.

As for G24A U76C, the self-cleavage came to 0.26.

With G24C A47G, the self-cleavage is 0.48.

C23A A56G: the self-cleavage is 0.2.

Consider C23A U67C, for which the self-cleavage amounted to 0.17.

Turning to C23A U67A, the self-cleavage is 0.16.

Take G24A U25C: the self-cleavage is 0.25.

Consider G24A U25A, for which the self-cleavage is 0.26.

In the case of G24C A28U, the self-cleavage was 0.28.

Turning to G24C A28G, the self-cleavage stood at 0.41.

C23A C62U: the self-cleavage turned out to be 0.21.

On to G24C A57U, for which the self-cleavage was 0.11.

With G24C A57G, the self-cleavage came to 0.11.

For the variant C23G U60C, the self-cleavage stood at 0.07.

With C23G U60A, the self-cleavage was determined as 0.19.

Consider C23G U66C, for which the self-cleavage came to 0.15.
